Experimental data taken from US5616559, “Papillomavirus E2 trans-activation repressors” (Biogen, Inc., dated 1997).
Numbering of substitutions follows the chain as printed.

B1: BPV1 E2 mutant 333V, full-length form (other)
chain: METACERLHVAQETQMQLIEKSSDKLQDHILYWTAVRTENTLLYAARKKGVTVLGHCRVPHSVVCQERAKQAIEMQLSLQELSKTEFGDEPWSLLDTSWDRYMSEPKRCFKKGARVVEVEFDGNASNTNWYTVYSNLYMRTEDGWQLAKAGADGTGLYYCTMAGAGRIYYSRFGDEAARFSTTGHYSVRDQDRVYAGVSSTSSDFRDRPDGVWVASEGPEGDPAGKEAEPAQPVSSLLGSPACGPIRAGLGWVRDGPRSHPYNFPAGSGGSILRSSSTPVQGTVPVDLASRQEEEEQSPDSTEEEPVTLPRRTTNDGFHLLKAGGSCFALISVTANQVKCYRFRVKKNHRHRYENCTTTWFTVADNGAERQGQAQILITFGSPSQRQDFLKHVPLPPGMNISGFTASLDF
B2: BPV1 E2 mutant 360S, full-length form (other)
chain: B1 chain with V333G, W360S
B3: BPV1 E2 mutant 333V in the E2 repressor format (C-terminal 249 amino acids) (other)
chain: MAGAGRIYYSRFGDEAARFSTTGHYSVRDQDRVYAGVSSTSSDFRDRPDGVWVASEGPEGDPAGKEAEPAQPVSSLLGSPACGPIRAGLGWVRDGPRSHPYNFPAGSGGSILRSSSTPVQGTVPVDLASRQEEEEQSPDSTEEEPVTLPRRTTNDGFHLLKAGGSCFALISVTANQVKCYRFRVKKNHRHRYENCTTTWFTVADNGAERQGQAQILITFGSPSQRQDFLKHVPLPPGMNISGFTASLDF
B4: BPV1 E2 mutant 386W in the E2 repressor format (C-terminal 249 amino acids) (other)
chain: B3 chain with V172G, R225W
B5: BPV1 E2 mutant 339M in the E2 repressor format (C-terminal 249 amino acids) (other)
chain: B3 chain with V172G, K178M
B6: BPV1 E2 mutant 337L in the E2 repressor format (C-terminal 249 amino acids) (other)
chain: B3 chain with V172G, Q176L
B7: BPV1 E2 mutant 340R in the E2 repressor format (C-terminal 249 amino acids) (other)
chain: B3 chain with V172G, C179R
B8: BPV1 E2 mutant 340S in the E2 repressor format (C-terminal 249 amino acids) (other)
chain: B3 chain with V172G, C179S
B9: BPV1 E2 mutant 344L in the E2 repressor format (C-terminal 249 amino acids) (other)
chain: B3 chain with V172G, R183L
B10: BPV1 E2 mutant 340F in the E2 repressor format (C-terminal 249 amino acids) (other)
chain: B3 chain with V172G, C179F
B11: BPV1 E2 mutant 340G in the E2 repressor format (C-terminal 249 amino acids) (other)
chain: B3 chain with V172G, C179G
B12: BPV1 E2 mutant 340Y in the E2 repressor format (C-terminal 249 amino acids) (other)
chain: B3 chain with V172G, C179Y
B13: BPV1 E2 repressor with a tryptophan to asparagine mutation at amino acid residue 360 (other)
chain: B3 chain with V172G, W199N
B14: BPV1 E2 mutant 399I in the E2 repressor format (C-terminal 249 amino acids) (other)
chain: B3 chain with V172G, M238I
B15: BPV1 E2 mutant 360S in the E2 repressor format (C-terminal 249 amino acids) (other)
chain: B3 chain with V172G, W199S
B16: E2-123 (methionine, valine and the C-terminal 121 amino acids of HPV16 E2) (other)
chain: MVPDTGNPCHTTKLLHRDSVDSAPILTAFNSSHKGRINCNSNTTPIVHLKGDANTLKCLRYRFKKHCTLYTAVSSTWHWTGHNVKHKSAIVTLTYDSEWQRDQFLSQVKIPKTITVSTGFMSI
B17: E2-85 (methionine, alanine and the C-terminal 83 amino acids of HPV16 E2) (other)
chain: MASNTTPIVHLKGDANTLKCLRYRFKKHCTLYTAVSSTWHWTGHNVKHKSAIVTLTYDSEWQRDQFLSQVKIPKTITVSTGFMSI

How the values were obtained:
[1] = molecular target: full-length HPV16 E2 protein (human papillomavirus type 16 (HPV16)) (UniProt P03120)
[2] = molecular target: full-length native BPV1 E2 trans-activator protein (bovine papillomavirus type 1 (BPV1)) (UniProt P03122)
[3] = molecular target: full-length native BPV1 E2 trans-activator protein (bovine papillomavirus type 1 (BPV1)) (UniProt P03122); remark: listed apart in the source
[4] = molecular target: the molecule itself; assay: homodimerization; UV cross-linking, SDS-PAGE, immunoblot
[5] = molecular target: the molecule itself; assay: homodimerization; UV cross-linking, yeast extract
[6] = molecular target: full-length native BPV1 E2 trans-activator protein (bovine papillomavirus type 1 (BPV1), UniProt P03122); assay: cell-based or functional assay
[7] = molecular target: full-length HPV16 E2 protein (human papillomavirus type 16 (HPV16), UniProt P03120); assay: cell-based or functional assay

Molecule	Repression as % decrease in trans-activation by E2 [3] [%]	Repression as % decrease in trans-activation by E2 [6] [%]	other results
native BPV1 E2 repressor (C-terminal 249 amino acids of the BPV1 E2 protein) (from UniProt P03122)	–	–	% REPRESSION (hGH reporter) [1]: 100%; % repression of E2-dependent trans-activation (CAT or hGH reporter) [2]: > 80%
BPV1 E2 mutant 317STOP in the E2 repressor format (from UniProt P03122)	7.1	–	–
BPV1 E2 mutant 402* in the E2 repressor format (from UniProt P03122)	45.2	–	–
BPV1 E2 mutant 370I in the E2 repressor format (C-terminal 249 amino acids) (from UniProt P03122)	66.1	–	–
BPV1 E2 mutant 411* in the E2 repressor format (from UniProt P03122)	4.5	–	–
BPV1 E2 mutant 316Y in the E2 repressor format (C-terminal 249 amino acids) (from UniProt P03122)	8	–	–
BPV1 E2 mutant 366Y/376L in the E2 repressor format (C-terminal 249 amino acids) (from UniProt P03122)	16.1	–	–
BPV1 E2 mutant 408* in the E2 repressor format (from UniProt P03122)	59.5	–	–
BPV1 E2 mutant 374S/375L/391I (3SLI) in the E2 repressor format (C-terminal 249 amino acids) (from UniProt P03122)	39	–	–
B1	–	–	binding result [4]: no binding
B2	–	–	binding result [5]: no binding
B3	–	0	–
B4	–	81.4	–
B5	–	76.2	–
B6	–	90.4	–
B7	–	95.6	–
B8	–	89.6	–
B9	–	82.6	–
B10	–	86.1	–
B11	–	91.7	–
B12	–	93.5	–
B13	–	–	% REPRESSION (hGH reporter) [7]: 0%
B14	–	86.9	–
B15	–	32.3	–
B16	–	–	% REPRESSION (hGH reporter) [7]: 100%
B17	–	–	% REPRESSION (hGH reporter) [7]: 87.2%
